{"source": "the DeepSol protein solubility set", "data": [{"experiment": "soluble on expression in E. coli; label from the status in PepcDB or PDB records", "values": [{"sequence": "MSEQKQDVAATEEQQPVLQIQRIYVKDVSFEAPNLPHIFQQEWKPKLGFDLSTETTQVGDDLYEVVLNISVETTLEDSGDVAFICEVKQAGVFTISGLEDVQMAHCLTSQCPNMLFPYARELVSNLVNRGTFPALNLSPVNFDALFVEYMNRQQAENAEEKSEEEQTKH", "soluble on expression in E. coli": "soluble"}, {"sequence": "MSEQTVQVKTTGKILQSPCGPIIHGLEDVLIKSTSISDIDGEKGILWYRGYRIEELARLSTYEEVSYLILYGRLPTKRELEDYINRMKKYRELHPATVEVIRNLAKAHPMFALEAAVAAEGAYDEDNQKLIEALSVGRYKAEEKELAYRIAEKLVAKMPTIVAYHYRFSRGLEVVRPRDDLGHAANFLYMMFGREPDPLASRGIDLYLILHADHEVPASTFAAHVVASTLSDLYSSVAAAIAALKGPLHGGANEMAVRNYLEIGTPAKAKEIVEAATKPGGPKLMGVGHRVYKAYDPRAKIFKEFSRDYVAKFGDPQNLFAIASAIEQEVLSHPYFQQRKLYPNVDFWSGIAFYYMGIPYEYFTPIFAMSRVVGWVAHVLEYWENNRIFRPRACYIGPHDLQYIPLEQR", "soluble on expression in E. coli": "soluble"}, {"sequence": "MSESLRNTITKIVVEKIRCKSLMFMPSHVCATFPFNTQNALVVDIGHSECIAVPIIEGVTMLNEFESARSICGRQLERRVREQMEKYGQIAELNGERRAITENDWQDIDACKLIETLSLSLICLDKERAENWTKWEASEEGEKPDIETLCKERLFPNNGKIFVVPPVVFETSTEIFFNENLNPTSFDLSLPKLLHKLVSKCPIDLRKKLFPNILLTGGVSTIPGLMKRLEQEIQVIDEKNNSKIAVIVKFYQFSEIKNTPLFVSWLGASLLGSLRETIERKSLTLEEWKNGKLAADWTDIIVKSR", "soluble on expression in E. coli": "not soluble"}, {"sequence": "MSEVTNELMKTIGGLAKNPNFYLMMGPHHRGQRGHHRGQARLMHLLEKYDGLSVGEIAEILDVRPSSVTSLVDKLEENDFVERIVDEIDKRITLIKLTKKGHAFLKNKKDEADDLSEEIFARLSEEEKDTLLRLLKRVSENLNDVDFGDYISKMVNDSIGRHFKFDDGDIHINI", "soluble on expression in E. coli": "not soluble"}, {"sequence": "MSEYREIITKAVVAKGRKFTQCTNTISPEKKPSSILGGWIINHKYDAEKIGKTVEIEGYYDINVWYSYADNTKTEVVTERVKYVDVIKLRYRDNNYLDDEHEVIAKVLQQPNCLEVTISPNGNKIVVQAEREFLAEVVGETKVVVEVNPDWEEDDEEDWEDELDEELEDINPEFLVGDPEELEHHHHHH", "soluble on expression in E. coli": "soluble"}, {"sequence": "MSFAIEIVIKAPMDIVCDYIIEDEKIKEWNTFIIENRYPSNMDKENPRVGDKYITVQKVGKKIFEAEVEILEYDAPHIISLGSEMKQGYSAMTYMLEEDEEGTALTLISEYEPSNFYYKMMYKLTGWISRGLTMEQMERLAECVEAAYHKEDLEHHHHHH", "soluble on expression in E. coli": "not soluble"}, {"sequence": "MSFDAKSLQQVREQVAARLRLDAGRPWLMVHAGSGGSANNLSIEQYARLIIKLNQACPELQCILTAGPGEERIAEQLAAELLAHGGNGWIYRSDEGLPKFCQVMANAALFVAGSTGPLHIAAALDVPTIGFFPAHRSATPLRWRPLNSEGRHLAFSPPEDSDHPEDMSQLDPKTMAAAIARWAPPFWRTEHLEHHHHHH", "soluble on expression in E. coli": "soluble"}, {"sequence": "MSFLISFDKSKKHPAHLQLANNLKIALALEYASKNLKPEVDNDNAAMELRNTKEPFLLFDANAILRYVMDDFEGQTSDKYQFALASLQNLLYHKELPQQHVEVLTNKAIENYLVELKEPLTTTDLILFANVYALNSSLVHSKFPELPSKVHNAVALAKKHVPRDSSSFKNIGAVKIQADLTVKPKDSEILPKPNERNILITSALPYVNNVPHLGNIIGSVLSADIFARYCKGRNYNALFICGTDEYGTATETKALEEGVTPRQLCDKYHKIHSDVYKWFQIGFDYFGRTTTDKQTEIAQHIFTKLNSNGYLEEQSMKQLYCPVHNSYLADRYVEGECPKCHYDDARGDQCDKCGALLDPFELINPRCKLDDASPEPKYSDHIFLSLDKLESQISEWVEKASEEGNWSKNSKTITQSWLKDGLKPRCITRDLVWGTPVPLEKYKDKVLYVWFDATIGYVSITSNYTKEWKQWWNNPEHVSLYQFMGKDNVPFHTVVFPGSQLGTEENWTMLHHLNTTEYLQYENGKFSKSRGVGVFGNNAQDSGISPSVWRYYLASVRPESSDSHFSWDDFVARNNSELLANLGNFVNRLIKFVNAKYNGVVPKFDPKKVSNYDGLVKDINEILSNYVKEMELGHERRGLEIAMSLSARGNQFLQENKLDNTLFSQSPEKSDAVVAVGLNIIYAVSSIITPYMPEIGEKINKMLNAPALKIDDRFHLAILEGHNINKAEYLFQRIDEKKIDEWRAKYGGQQV", "soluble on expression in E. coli": "not soluble"}, {"sequence": "MSFLSIPINEKSLSFIKNNFQAQIQALEQFYPIIKNALNLGLNPSSIKFGGGTALSMYYFQHRLSFDMDLFVNDAQCLGFFSPKLWIDNCSHFDSTRYIDQHNHIGVTNKDNIKIDVLVDYASNEGYVDNSKKIFAFDIYIESLENIIAKKITFRKTDNKTRDIFDIAVALHNDNNLFDKLLSSQKITKQDLLTLQNSLQELDKKRYSIEIDMVEPISHYKDLSLSAYDFLIDKIDQIKTATYSNSHDNADDLDNSNEYTPTPKRRR", "soluble on expression in E. coli": "not soluble"}, {"sequence": "MSFRETFLNNKFKFACRDSFLIEYYLEECYMSKKIINVVAAAIEKDGKIFCAQRPEGKSLGGYWEFPGGKLKEGESPEEALIREIYEELNSKIEIISFVNEASYDYDFGTVVMKTFHAKLVCGNLDLLEHQDSVWLEPSRLKTLNWAPVDRPAVELLSKEGHHHHHH", "soluble on expression in E. coli": "soluble"}, {"sequence": "MSFRIEEKIVLTASDMARLQADLQARGMVPLYPARLIRSVYFDTSGLQMFSDSEEGVLPRKKVRLRRYPEQADAGAVLETKISSVEGRFKTALPVAPETERRLLRQGHFDRDYGTLQAMVAVSYRRAYYSLDGLRITFDRDIAYARPDGQTARREAWTVCELKAPAEAPLDALHHILPVPRRRFSKFCNGVSAVIARALEHHHHHH", "soluble on expression in E. coli": "not soluble"}, {"sequence": "MSGDRDDPRYPYPKDDAELRRRLTPMQYEVTQHAATEPPFTGEYTDTEDAGIYHCVVCGTALFESGAKYHSGCGWPSYFKPIDGEVIDEKMDYTHGMTRVEVRCNQCGAHLGHVFEDGPRDKTGLRYCINSAALNFEAKPERK", "soluble on expression in E. coli": "not soluble"}, {"sequence": "MSGGSDQVKNMIYINGNRRGHCFITSGITFKEFASNIPSPLHQVLLLKHNFEWTDFHYHTLFEYVEEENIHKLIQAEIDEFDEFCWVDFDDASDLDELEPKEIAELLYLAHKKEPLARTFFPLLKNRFVYFSHDDGWYNKVYYRRIADFVGMLSKVIPYKLGAFGKKRFSFFQKSKIFPAISKELIMGLIPLMEDGLYIDLAGKIESRRGLEIPVYVVGSYESTDEVLDNIDELKEEATETGWLIFDKKEQEWQWVVD", "soluble on expression in E. coli": "not soluble"}, {"sequence": "MSGIGKRELIELYDKLLQFYGKQNWWPVDLEYHKTHGSDPREEVIIGAILTQNTSWKNVEKALENLKREKALNLKAIKEIPTEKLMELIKPAGFYRQKSLYLKEFANKFPSISHLKNVKREDLLKVKGIGKETADAILLYALDRLEFVVDAYTKRLLERLWNIKGSYEEIKRLFEKNLPKDLEIYREFHALIDIHAKEFCKKKPLCEECPLREKCIKSCF", "soluble on expression in E. coli": "soluble"}, {"sequence": "MSGKEEFQTIKERAKRKLERDMGADLLAALNDPKTVEVMLNADGKVWHERLGEPMRYICDMRPSQSQAIIETVAGFHGKEVTRHSPILEGEFPLDGSRFAGQLPPVVAAPTFAIRKRAVAIFTLEQYVEAGIMTREQYEVIKSAVAAHRNILVIGGTGSGKTTLVNAIINEMVAFNPSERVVIIEDTGEIQCAAENAVQYHTSIDVSMTLLLKTTLRMRPDRILVGEVRGPEALDLLMAWNTGHEGGAATLHANNPKAGLSRLAMLISMHPDSPKPIEPLIGEAVHVVVHIARTPSGRRVQEILEVLGYENGQYITKTL", "soluble on expression in E. coli": "not soluble"}, {"sequence": "MSGQNNVVGVHYKVGRRIGEGSFGVIFEGTNLLNNQQVAIKFEPRRSDAPQLRDEYRTYKLLAGCTGIPNVYYFGQEGLHNVLVIDLLGPSLEDLLDLCGRKFSVKTVAMAAKQMLARVQSIHEKSLVYRDIKPDNFLIGRPNSKNANMIYVVDFGMVKFYRDPVTKQHIPYREKKNLSGTARYMSINTHLGREQSRRDDLEALGHVFMYFLRGSLPWQGLKAATNKQKYERIGEKKQSTPLRELCAGFPEEFYKYMHYARNLAFDATPDYDYLQGLFSKVLERLNTTEDENFDWNLL", "soluble on expression in E. coli": "soluble"}, {"sequence": "MSGVSLGRGQNANAAYLDNIKELGFKLVRRPTGGGALLHPEDNEITYSVVLSASNTIAKLSVDESAVEIAKGILYTLQILGENVDIRGLGDMKKHDLCYLRSGSSDVIVAGRKISGSAQVRDDKALLQHGTLLLRFEPEI", "soluble on expression in E. coli": "soluble"}, {"sequence": "MSGVTAIEIPQWIQDNQEDFVPPVCNKCMFSDQLKVFYVGGPNQRKDFHLEEGEEFFFQRKGDMVLKVIEKGQVRDLVIKQGEMFMLPARVEHSPQRFSNSIGLVVERERKNTEFDCVRFLVGSSNITLFERWFYLTDVVKDLPPLIKEFYGSNEFKTGKPGKGTFACNAPYEARWTDLPVPINRKEFIYDHISEVKNGPVRIYGAPEYKTEVMLLGEGSYDLESGTVELLIWLQENTFAVVEESGFTYAMKSETMVRIKPNTKCLLNVKGGFAITIRMPA", "soluble on expression in E. coli": "not soluble"}, {"sequence": "MSHGHSHDGAPCGGHHGDDGAGGSRPSVNDVQALVDQLRLAGVDVSNMPNIPTAPRDMDEARSKSFQFWSTQPVPQMDETVPADVNCAIEENIALDKVRAEPFSLPAGFRWSNVDLSDEEQLNELYNLLTRNYVEDDDSMFRFDYSADFLKWALQVPGFRPEWHCGVRADSNNRLLAFIGAVPQTVRVYDKTVNMVEINFLCVHKNLRSRRVAPVLIREITRRVNVTGIFQAAFTAGIVIPKPVSVCRYYHRSLNPRKLIDVRFSHLSAKMTMARTIKLYKLPEETATRNLREMKSTDVPQVFKLLTTSLKQYSLAPVYNSEEELAHALVPKKGVVYSYVAENQNGKITDFVSFYSLPSTVMGHTTHKTIYAAYLYYYVAGSVTPKQLINDSLILANREKFDVFNALDLMHNEKIFSDLKFGKGDGNLQYYLYNWKCADMKPSQIGLVLQ", "soluble on expression in E. coli": "not soluble"}, {"sequence": "MSHVELQPGFDFQQAGKEVLAIERECLAELDQYINQNFTLACEKMFWCKGKVVVMGMGKSGHIGRKMAATFASTGTPSFFVHPGEAAHGDLGMVTPQDVVIAISNSGESSEITALIPVLKRLHIPLICITGRPESSMARAADVHLCVKVAKEACPLGLAPTSSTTATLVMGDALAVALLKARGFTAEDFALSHPGGALGRKLLLRVNDIMHTGDEIPHVKKTASLRDALLEVTRKNLGMTVICDDNMMIEGIFTDGDLRRVFDMGVDVRQLSIADVMTPGGIRVRPGILAVEALNLMQSRHITSVMVADGDHLLGVLHMHDLLRAGVV", "soluble on expression in E. coli": "soluble"}, {"sequence": "MSIEVRDCNGALLADGDNVSLIKDLKLKGSSTVLKRGTMIRGIRLTDSEDEIEGRTDKIKGLVLRTEFLKKAGS", "soluble on expression in E. coli": "soluble"}, {"sequence": "MSIFPTRDSRDLSSRRRSLIDWEFPQMALVPLDQVFDWAERSRQSLHDDIVNMHRNLFSLEPFTAMDNAFESVMKEMSAIQPREFHPELEYTQPGELDFLKDAYEVGKDGRLHFKVYFNVKNFKAEEITIKADKNKLVVRAQKSVACGDAAMSESVGRSIPLPPSVDRNHIQATITTDDVLVIEAPVNEPNYKAIKLSPEKGLAIQPSEVQERQLAVKNKEGLEIVTAEDGSKKIHLELKVDPHFAPKDVKVWAKGNKVYVHGVTGKEEKTENASHSEHREFYKAFVTPEVVDASKTQAEIVDGLMVVEAPLFK", "soluble on expression in E. coli": "soluble"}, {"sequence": "MSIKKSPVYNVIAVPVEKVQANDYNPNVVAPPEMRLLELSIWEDGFTMPCVCYYDKEKDVYILVDGFHRYSVLKTSKRIFQRENGMLPIVVIEKDLSNRMSSTIRHNRARGTHN", "soluble on expression in E. coli": "soluble"}]}]}
